B1: CPOX (parent)
chain: HAPTIHFNYRYFEVEEADGNKQWW
B2: INTS3 (parent)
chain: AQLQALRQKEVDFCISLLRERFME

Variants of: B1
Assay: protein stability index of a GFP-peptide fusion (GPS, HEK-293T) (PSI 1-6); higher = more stable
Settings: c terminus: a fixed tail appended
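Further: lentivirally expressed fusions sorted by FACS into six bins by GFP to DsRed ratio, PSI derived from sequencing read proportions per bin multiplied by bin number.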

Protein stability index of substitutions, site by site:
W23: F 2.04, T 2.63, I 2.58, R 3.03, A 3.94, K 3.35, D 4.27, V 2.36, G 2.8, N 3.71, L 2.73, E 4.22, C 2.07, P 3.34, Y 2.33, H 3.06, S 3.19, M 3.04, Q 3.38
W24: N 3.06, R 3.11, G 2.81, Y 2.51, F 2.69, C 2.63, P 2.91, S 2.91, K 3.24, V 3.1, H 3.03, Q 2.34, M 3.4, D 3.82, A 3.17, L 2.66, I 3.35, E 3.06, T 2.86
Q22: T 2.27, Y 2.5, I 2.3, S 1.59, N 2.19, R 2.5, L 2.01, W 2, V 1.9, M 1.76, P 2.56

Variants of: B2
Assay: as above
Settings: c terminus: a fixed tail appended

Protein stability index: each site, then its substitutions
F13: C 3.42, V 2.7, A 1.09, D 1.55, W 3.65, L 1.64, H 1.95, M 2.52, I 2.49, P 2.3, K 2.9, R 1.27, Q 1.82, G 2, T 2.44, S 2.19, N 2.37, E 1.66, Y 5.35
E10: G 2.1, A 2.86, M 2.87, N 1.32, W 1.53, D 1.04, Y 1.49, F 2.15, K 2.2, R 2.09, L 3.79, P 2.72, I 2.25, S 3.14, C 1.02
A5: D 2.68, I 2.07, R 2.15, V 1.04, K 1.92, Y 2.68, H 2.44, N 2.61, S 2.33, M 1.51, L 3.11, C 3.02, F 4.25, T 1.65, E 2.24
L3: H 1.41, A 2.15, K 1.5, N 1.55, R 1.19, I 2.87, Q 1.78, C 1.76, T 1.44, G 2.11, S 1.76, W 2.71, P 1.62, E 2.21, D 1.81, M 2
Q4: L 2.45, I 3.2, P 1.5, R 2.3, A 3.65, E 2.81, G 2.13, H 3.32, T 3.02, S 1.55, F 1.83, N 2.4, V 2.98, W 3.64, C 1.93, M 2.55, D 2.04
K9: F 2.45, I 3.07, G 2.51, L 2.48, N 1.93, T 2.45, Q 3.5, Y 3.51, H 3.64, E 2.18, W 1.45, C 2.98, R 2.32, M 2.65, P 2.91, S 2.29, D 1.9
A1: Q 2.43, M 2.4, I 2.43, D 2.11, C 3.01, V 2.85, R 2.08, P 3.68, L 1.61, N 2.73, E 2.65, W 2.49, H 3.79, K 2.62, T 3.13, G 2.93
L18: H 1.76, C 1.02, D 2.38, K 2.34, M 3.87, G 3.07, E 2.57, F 3.16, A 1.7, N 1.97, P 2.04
Q8: P 1.22, R 1.91, A 2.62, D 2.83, I 3.36, G 2.55, T 3.06, L 1.78, Y 4.01, K 1.65, S 3.06, V 3.32, E 1.91, N 2.37, H 3.1
I15: N 2.46, G 2.6, A 1.62, M 1.17, R 1.71, D 2.54, L 2.84, Y 2.3, S 1.67, Q 1.77, P 2.07, H 2.37, E 2.34, K 2.17, W 2.07, T 2.07
S16: E 3.24, K 1.65, I 2.38, D 2.09, L 1.85, M 4.38, N 3.32, G 3.67, P 2.14, C 3.15, F 4.27, R 3.39, Y 3.56, Q 3.15, V 1.11
C14: L 2.93, N 1.52, I 2.68, R 2.16, Q 1.84, W 1.96, P 2.03, K 1.93, D 2.03, H 1.94, S 2.02, Y 2.16, T 1.68, G 1.84, E 1.75
L6: T 1.86, A 2.13, Q 2.02, C 3.33, W 1.73, G 1.98, Y 2.57, N 1.97, I 1.93, H 2.11, S 2.14, F 2.59, R 2.02, K 2.31, D 1.96, E 1.52, V 2.98, P 2.25, M 2.44
Q2: Y 3.15, H 4.58, G 3.4, C 2.98, P 2.38, W 2.42, I 1.67, M 3.7, D 3.29, N 3.27, R 4.11, T 3.02, F 2.63, E 1.48
R7: W 2.6, H 2.84, G 4.64, V 1.74, L 2.24, F 2.46, Y 3.17, K 2.71, T 3.43, P 2.23, N 2.35, S 2.93, Q 2.73, D 1.65
V11: R 1.99, N 2.25, M 3.61, S 1.67, Q 1.81, D 2.49, T 1.81, P 2.7, W 2.14, K 1.7, Y 2.73, E 2.54, L 4.26, A 2.23, F 2.1, C 1.29, H 3.66, G 1.72
D12: Y 2.09, N 1.59, G 2.1, I 1.91, C 3.46, V 4.29, Q 2.12, S 3.29, K 1.98, L 2.47, H 3.57, P 2.05, W 3.08, R 2.19, E 2.45, T 2.66, F 1.05
L17: P 2.16, Q 2.45, H 1.65, E 2.06, N 2.1, S 1.22, D 2.56, V 3.89, Y 2.51, F 1.9, T 1.8, W 2.46, K 2, R 2.08, G 2.3, A 2.03

Reference: the supplement of paper PMC10567573
